The values below come from PMC12548473, “Solution structure of the C-terminal domain of the measles virus V protein in its free form and mechanistic analysis of STAT2 targeting” (Journal of Virology, 2025).

The target of test [1] is STAT2 core (Homo sapiens) (UniProt P52630). As to conditions: cited from earlier work.
Test [2] has as its target T1, STAT2-core (UniProt P52630 133-679).
T1 construct: source: purified
T1 sequence: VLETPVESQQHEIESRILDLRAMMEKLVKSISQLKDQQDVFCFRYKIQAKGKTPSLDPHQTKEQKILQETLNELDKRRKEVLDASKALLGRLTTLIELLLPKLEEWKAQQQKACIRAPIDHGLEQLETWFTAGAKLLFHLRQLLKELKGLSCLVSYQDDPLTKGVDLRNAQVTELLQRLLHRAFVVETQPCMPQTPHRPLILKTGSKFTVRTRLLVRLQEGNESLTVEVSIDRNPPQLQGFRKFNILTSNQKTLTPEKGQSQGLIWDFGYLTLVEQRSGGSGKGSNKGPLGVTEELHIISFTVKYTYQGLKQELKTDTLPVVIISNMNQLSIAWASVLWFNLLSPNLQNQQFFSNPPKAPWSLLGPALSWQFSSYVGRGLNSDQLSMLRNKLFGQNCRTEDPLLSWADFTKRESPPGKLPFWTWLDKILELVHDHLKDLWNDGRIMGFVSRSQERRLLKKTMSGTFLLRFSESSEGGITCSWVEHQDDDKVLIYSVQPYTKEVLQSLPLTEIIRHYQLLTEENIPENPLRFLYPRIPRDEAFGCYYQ
In words: ITC; 250 µM MeV-V_(CT221-299) injected (20 x 2.5 µL) into 35 µM STAT2-core; 20°C; 10 mM HEPES pH 7.4, 150 mM NaCl, 1 mM TCEP; 1:1 binding model; three independent experiments. As to conditions: both partners purified. In general terms: In ITC the heat of successive injections is recorded.

For orientation: Kd means a measure of binding affinity in units of concentration. Take MeV-V (from UniProt P0C774): the dissociation constant (Kd) in test [1] was 180 nM.

B1: MeV-V_(CT221-299) (measles virus V protein, residues 221-299, containing the C-terminal domain) (domain or fragment)
chain: GPASTSETPIKKGHRREIGLIWNGDRVFIDRWCNPMCSKVTLGTIRARCTCGECPRVCEQCRTDTGVDTRIWYHNLPEIPE
notes: additional Gly and Pro before Ala221, left after HRV-3C protease digestion; 15N- or 13C,15N-labelled for the NMR experiments, unlabelled for ITC; Monomer by SEC; also called MeV-VCT construct; MeV-VCTD; source: E. coli BL21 star (DE3), purified (Glutathione Sepharose 4B, 3C protease elution, HisTrap, HIC, SEC); not shown: GST, N-terminal, cleaved
The term stoichiometry N denotes a count of units in the complex or per binding partner. As for B1, in test [2], the dissociation constant Kd was 212 nM, the dH was -12.5 kcal/mol and the “stoichiometry N” value was found to be 1.17.
